Reference: patent US20220235138A1, “CAR-T CELLS TARGETING IL-1RAP AND THEIR USE IN ACUTE MYELOID LEUKEMIA (AML)” (ETABLISSEMENT FRANCAIS DU SANG, priority 2019, published 2022)

Assays:
[1] = tested on: IL-1RAP; assay: Western blotting and cell surface staining of AML cell lines; assay type: binding, human
From the text: Whole cellular lysates of different AML or CML (positive control) hematopoietic cell lines were separated by polyacrylamide gel electrophoresis and electrotransferred onto polyvinylidene difluoride membranes. Membranes were probed overnight with primary IL-1RAP #A3C3 (diluted at 1:20). Twenty micrograms of protein were electrophoresed on sodium dodecyl-sulfate polyacrylamide gels (SDS-PAGE), and then sonicated protein fractions were suspended in RIPA buffer supplemented with a protease inhibitor cocktail (complete Mini EDTA-free; Roche, Bale, Switzerland). Protein load in the western blot lane was evaluated with β-actin mAb staining (1:1000, clone AC15, #A5441, Sigma-Aldrich). Immunodetection staining was performed with a secondary polyclonal antibody sheep anti-mouse IgG (#515-035-062, Jackson). Enhanced chemiluminescence detection reagents allowed detection with a camera and Bio-1D software (Vilber-Lourmat, Collegien, France).
IL-1RAP cell surface staining of different hematopoietic AML cell lines was performed, using #A3C3 mAb and IL-1RAP murine mAb as staining comparison.
Relative Fluorescence Intensity (RFI) between IL-1RAP staining and isotype was calculated. IL-1RAP+ (KU812) or IL-1RAP-(Raji) cell lines were used as positive or negative controls respectively.

[2] = target: T1, IL-1RAP recombinant protein (Homo sapiens, UniProt Q9NPH3); assay: ELISA detection of recombinant IL-1RAP protein; assay type: binding
T1 construct: recombinant fusion protein consisting of the extra cellular part of IL-1RAP (NM_002182.2, NCBI) and the Fc-part of human IgG1; purchased R&D Systems
T1 sequence (Q9NPH3 21-367 limits assumed): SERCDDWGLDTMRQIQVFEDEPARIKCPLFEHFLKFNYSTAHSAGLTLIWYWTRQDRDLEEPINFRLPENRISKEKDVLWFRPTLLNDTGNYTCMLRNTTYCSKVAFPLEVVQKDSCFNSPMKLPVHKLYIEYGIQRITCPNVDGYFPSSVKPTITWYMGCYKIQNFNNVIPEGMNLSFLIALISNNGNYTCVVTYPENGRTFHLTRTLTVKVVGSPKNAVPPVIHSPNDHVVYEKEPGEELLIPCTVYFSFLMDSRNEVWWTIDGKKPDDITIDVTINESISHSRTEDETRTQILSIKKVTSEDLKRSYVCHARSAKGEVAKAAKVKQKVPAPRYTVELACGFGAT
From the text: Anti-human Fc antibody was coated on a bottom of a plastic ELISA plate.

[3] = tested on: IL-1RAP; assay: Hybridoma screening by FACS against IL-1RAP-positive and -negative cell lines; assay type: binding, human; conditions: compared among the 5 subclones
From the text: Briefly, BALB/c mice (5 weeks, Charles River) were immunized either by foot pad (n=3) or intraperitoneally (n=5) with a recombinant fusion protein consisting of the extra cellular part of IL-1RAP (NM_002182.2, NCBI) and the Fc-part of human IgG1 (R&D Systems, Lille, France). Lymph nodes or spleens cells and blood samples were harvested and cells were fused with the mouse myeloma cell line, then screened by FACS analysis Becton Dickinson)(, against IL-1RAP-positive (KU812) and -negative (Raji, KG1) cell lines.
Screening of hybridoma allowed to select 5 monoclonal antibodies subclones that discriminate IL-1RAP positive (KU812 or KG-1 respectively AML or Phi^+p^210 CML) from negative cell lines (Tom-1, NALM-20, Jurkat or Raji, respectively Phi+^p190 B-ALL, Phi^−B-ALL, T-ALL or Burkitt's lymphoma).
Molecular characterization was performed by Sanger sequencing of cloned PCR products amplification obtained with degenerated primers specific of the FR1 and constant regions of the heavy and light chains according to the protocol of Wang. Z. et al (J. Immunol. Methods, 2000; 233, pages 167-77). […] The monoclonal antibody subclone (#E3C3) was chosen, since it gave the highest relative fluorescence intensity (RFI) by cytometry.

[4] = tested on: HMEC-1 endothelial cell line; assay: Flow cytometry staining of HMEC-1 dermal endothelial cell line; assay type: binding, human; conditions: microvascular HMEC-1 endothelial cell line
From the text: FIG. 13: (A) Tissue microarray. Representative #A3C3 staining of an US Food and Drug Administration standard frozen tissue array, including 90 tissue cores (30 organs) of 3 individual donors per organ (US Biomax, Rockville, Md., USA). Immunostaining was detected using the UltraView Universal DAB Detection Kit (Ventana, USA). Images were acquired and analyzed with NDP.view 2.0 software. […] (Scale bars, 100 μm.) High IL-1RAP (KU812) or negative (Raji)-expressing cell lines were respectively used as positive or negative controls. (B) IL-1RAP R&D (red) or #A3C3 (blue) staining of HMEC-1 dermal endothelial cell line. Isotype IgG1 (gray) is depicted as overlay. RFI is provided for both staining.
In order to predict off-target toxicity, we used the #A3C3 mAb to investigate IL-1RAP expression using a tissue macroarray (TMA) of 30 normal human tissues.

IL-1RAP, sequence (Q9NPH3 21-570): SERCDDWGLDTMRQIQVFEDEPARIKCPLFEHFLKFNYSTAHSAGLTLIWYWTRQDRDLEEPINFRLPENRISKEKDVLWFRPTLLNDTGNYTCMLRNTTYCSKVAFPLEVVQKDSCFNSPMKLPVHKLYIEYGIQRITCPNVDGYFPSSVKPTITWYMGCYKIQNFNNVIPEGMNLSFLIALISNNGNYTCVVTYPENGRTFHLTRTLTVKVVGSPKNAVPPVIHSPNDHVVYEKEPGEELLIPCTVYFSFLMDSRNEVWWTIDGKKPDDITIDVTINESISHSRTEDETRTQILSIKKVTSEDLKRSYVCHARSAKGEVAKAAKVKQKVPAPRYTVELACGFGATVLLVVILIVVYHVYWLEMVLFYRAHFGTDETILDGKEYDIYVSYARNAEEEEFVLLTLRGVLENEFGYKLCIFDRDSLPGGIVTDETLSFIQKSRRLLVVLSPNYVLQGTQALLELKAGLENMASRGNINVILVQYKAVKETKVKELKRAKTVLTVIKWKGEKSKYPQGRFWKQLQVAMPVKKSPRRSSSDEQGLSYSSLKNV

B1: #A3C3: mouse anti-hIL-1RAP monoclonal antibody generated by standard hybridoma technique; VH SEQ ID No 2, VL SEQ ID No 4 (antibody, V domains shown)
VH: MGWSCIILFLVATATGVNSQVQLQQPGAELMMPGASVKVSCEASGYTFTDSWMHWVKQRPGQGLEWIGAIDPSDSYTTYNQKFTGKATLSVDESSNTAYMQLSSLTSEDSAVYYCARYYSGSNYISPFPYWGQGTLVTVSA
VL: MESQIQVFVFVFLWLSGVDGDIVMTQSHKFMSTSVGDRVTITCKASLDVSTAVAWYQQKPGQSPKLLIYSASYRYTGVPDRFTGSGSGTDFTFTISSVQAEDLAVYYCQQHYSPPFTFGSGTNLEIK
modifications: Amino acid sequence of chain H (VH) of murine scFv anti-IL-1RAP; Amino acid sequence of chain K (VL) of murine scFv anti-IL-1RAP
- staining of AML cell lines expressing IL-1RAP at the cell surface [1]: able to stain different AML cell lines
- recognition of IL-1RAP recombinant protein [2]: recognize the IL-1RAP recombinant protein
- relative fluorescence intensity (RFI) by cytometry [3]: highest
- recognition of cell surface IL-1RAP on HMEC-1 [4]: not recognized
